No end group written: not given here.
Target: collagen
Experiment: SPR, Biacore 2000; 1500 RU collagen amine-coupled to CM-3 chip, SILY injected at 100 µM to 1.5 µM; from on-off binding kinetics

Kd: 1200 nM
B1: peptide … (peptide)
peptide: RRANAALKAGELYKSILYGC-NH2
